What all share (assay type): cell-based, human
One data set deals with MDA-MB-231 cells. Briefly: In-vitro cytotoxicity, HER2-negative negative control. Particulars: MDA-MB-231, FIG. 15. As for the experimental part: (§1) In this example, human breast cancer cell line SKBR3 with high expression of HER2 and human ovarian cancer cell line SKOV3 with high expression of HER2 were chosen to evaluate the ability of the recombinant-fusion-antibody-drug conjugates to inhibit the growth of cancer cells. The recombinant-fusion-antibody-drug conjugates of different concentrations were added to a 96-well plate seeded with SKBR3 or SKOV3 cells. After treatment for 48 h, the viability of cells was calculated using a CCK8 kit.
In addition, in this example, the HER2-negative MDA-MB-231 cells were chosen as a negative control to compare the ability of fused VHH7-MMAF, fused VHH8-MMAF, VHH0-MMAF, VHH0, and MMAF to inhibit the growth of cancer cells.

Data set [1] has as its system SKBR3 cells. Briefly: In-vitro cytotoxicity, CCK8 cell viability. Particulars: SKBR3, 48 h; for IC50: CCK8, mean n=3. As for the experimental part:
as §1
Cell viability was measured using different concentrations of MMAF, VHH0-MMAF, or different recombinant-fusion-nanobody-drug conjugates (fused VHH1-MMAF to fused VHH26-MMAF). The half-maximal inhibitory concentration IC50 was calculated (FIGS. 14A-14C, and Table 7). FIGS. 14A, 14B and 14C respectively show the viability of SKBR3 cells treated with the recombinant-fusion-nanobody-drug conjugates, including fused VHH1-MMAF to fused VHH6-MMAF, fused VHH7-MMAF to fused VHH22-MMAF, and fused VHH23-MMAF to fused VHH26-MMAF. […] Data are expressed as the mean (n=3).
(§2) SKBR3 and SKOV3 cells were chosen to evaluate the ability of the recombinant-fusion-full-length-antibody-drug conjugates to inhibit the growth of cancer cells. […] The half-maximal inhibitory concentration IC50 was calculated.

The next data set relates to SKOV3 cells. Briefly: In-vitro cytotoxicity, CCK8 cell viability. Particulars: SKOV3, 48 h, CCK8, mean n=3; Table 9. How it is done: as §1, §2
Data set [2] deals with SKBR3 cells. Briefly: Internalization of TAMRA-labeled recombinant fusion antibodies by flow cytometry. To be noted: 2 μM, 6 h, acid wash, compared with non-fused VHH0.
Method: The recombinant fusion antibody was labeled a fluorescent molecule and the internalization activity of the labeled antibody was evaluated by flow cytometry.
The procedure included the following steps: First, 5 mM tris (2-carboxyethyl) phosphine (TCEP; Thermo Fisher Scientific) was added to reduce the sulfhydryl group of VHH0 and fused VHH1-VHH26 respectively for approximately 30 min at room temperature, then TCEP was removed by buffer-exchanging with PBS containing 1 mM ethylenediaminetetraacetic acid (EDTA). Next, 2 eq of Maleimide-PEG3-TAMRA was added to the antibody solution and the resulting solution was incubated at 4° C. for 2 h. Lastly, the excess small molecules were removed by buffer-exchanging to obtain TAMRA-labeled VHH0 and fused VHH1-VHH26.
In this example, SKBR3, a human breast cancer cell line with a high expression level of HER2, was used as a model system. […] SKBR3 cells were incubated with TAMRA-labeled antibodies for 6 h, and subsequently washed with acid to remove bound antibodies on the cell membrane, and the fluorescence intensity was analyzed by flow cytometry.
Data set [3] concerns SKBR3 cells. Description: Colocalization of recombinant fusion antibodies with lysosomes by confocal laser scanning microscopy. To be noted: TAMRA-labeled, 4 h, SKBR3, LysoTracker Green; compared with non-fused VHH0. An excerpt:
Confocal laser scanning microscope (CLSM) was used to analyze the colocalization of the recombinant fusion antibodies with the lysosome. The antibody-drug conjugate would be transported and processed in the endocytotic pathway as follows: once the antibody-drug conjugate binds to the cell-surface tumor antigen, it is internalized into endosomes, which subsequently mature and fuse with lysosomes. In the lysosomes, the acidic environment and specific proteases (e.g., cathepsin B) degrade the ADC, thus leading to the release of the drug. The free drug traverses the lysosomal membrane, reaches the cytosol and binds to its target, such as microtubule or DNA, thus ultimately triggering cell death. Therefore, the efficacy of an antibody-drug conjugate relies on its internalization and lysosomal trafficking.
In this example, SKBR3 cells were treated with TAMRA-labeled antibodies, including VHH0, fused VHH1-VHH26, mAb0, or fused mAb1-mAb3, for 4 h. The nuclei of SKBR cells were stained by Hoechst 33342 and the lysosomes of cells were stained by LysoTracker Green. The lysosome-trafficking activity of VHH0, fused VHH1-VHH26, mAb0, and fused mAb1-mAb3 was evaluated by confocal laser scanning microscopy. All images were presented under identical conditions. For quantitative analysis, the same threshold value was set for all images.

Non-standard residues stand in square brackets, D forms with d. Residues, ends and D or L forms follow the SMILES beside them. Dolaproine = CO[C@@H]([C@@H]1CCCN1)[C@@H](C)C(=O)O; Dil = CC[C@H](C)[C@H](NC)[C@@H](CC(=O)O)OC; NMeV = CN[C@H](C(=O)O)C(C)C

For orientation: IC50 means the concentration that gives 50% inhibition. Lower therefore signals higher potency.

`CC[C@H](C)[C@@H]([C@@H](CC(=O)N1CCC[C@H]1[C@H](OC)[C@@H](C)C(=O)N[C@@H](Cc1ccccc1)C(=O)O)OC)N(C)C(=O)[C@@H](NC(=O)[C@@H](NC)C(C)C)C(C)C` [MMAF, monomethyl auristatin F, reference compound] (H-[NMeV]V[Dil][Dolaproine]F-OH): the “cytotoxicity in HER2-negative cells” value with MDA-MB-231 cells is “significant cell death”. For the same molecule, in the data set with SKBR3 cells [1] (CCK8), the maximal killing entry is “about 50%”. Also, the IC50 in the data set on SKBR3 cells [1] (Table 7) is 53.2 nM; with SKBR3 cells [1] (Table 8), 37.4 nM; in the data set on SKOV3 cells, 37.4 nM.

B1: Fused VHH7: anti-HER2 nanobody fused with lysosome-targeting peptide P7, SEQ ID NO: 39 (protein)
chain: EVQLVESGGGLVQAGGSLRLSCAASGITFSINTMGWYRQAPGKQRELVALISSIGDTYYADSVKGRFTISRDNAKNTVYLQMNCLKPEDTAVYYCKRFRTAAQGTDYWGQGTQVTVSSHHHHHHLPETGGGSDEDLLHI
For B1, the “internalization ability of nanobodies (mean cell fluorescence)” value with SKBR3 cells [2] was “no significant difference in the internalization ability between fused VHH7 and fused VHH8”. The “colocalization of nanobodies with lysosomes / lysosomal trafficking” value in the data set with SKBR3 cells [3] is given as “No significant difference in lysosomal trafficking”.

B2: Fused VHH7-MMAF (conjugate)
VHH: EVQLVESGGGLVQAGGSLRLSCAASGITFSINTMGWYRQAPGKQRELVALISSIGDTYYADSVKGRFTISRDNAKNTVYLQMNCLKPEDTAVYYCKRFRTAAQGTDYWGQGTQVTVSSHHHHHHLPETGGGSDEDLLHI
With B2, the “cytotoxicity in HER2-negative cells” value with MDA-MB-231 cells was “none of the substances are cytotoxic”. The midpoint of inhibition in the data set with SKBR3 cells [1] (Table 7), the IC50, lay at 0.336 nM.

B3: Fused VHH8: anti-HER2 nanobody fused with P7, His6 tag after the peptide, SEQ ID NO: 40 (protein)
VHH: EVQLVESGGGLVQAGGSLRLSCAASGITFSINTMGWYRQAPGKQRELVALISSIGDTYYADSVKGRFTISRDNAKNTVYLQMNCLKPEDTAVYYCKRFRTAAQGTDYWGQGTQVTVSSLPETGGGSDEDLLHIHHHHHH
modifications: linker, P7 peptide, His6 tag
With B3, in the data set on SKBR3 cells [2], the “internalization ability of nanobodies (mean cell fluorescence)” value was “no significant difference in the internalization ability between fused VHH7 and fused VHH8”. Further, in the data set with SKBR3 cells [3], the “colocalization of nanobodies with lysosomes / lysosomal trafficking” value was “No significant difference in lysosomal trafficking”.

B4: Fused VHH8-MMAF (conjugate)
VHH: EVQLVESGGGLVQAGGSLRLSCAASGITFSINTMGWYRQAPGKQRELVALISSIGDTYYADSVKGRFTISRDNAKNTVYLQMNCLKPEDTAVYYCKRFRTAAQGTDYWGQGTQVTVSSLPETGGGSDEDLLHIHHHHHH
For B4, the “cytotoxicity in HER2-negative cells” value with MDA-MB-231 cells is listed as “none of the substances are cytotoxic”. Besides, in the data set on SKBR3 cells [1] (Table 7), the IC50 was found to be 0.319 nM.

B5: VHH0: non-fused anti-HER2 nanobody VHH-S84C-His6, SEQ ID NO: 32 (protein)
VHH: EVQLVESGGGLVQAGGSLRLSCAASGITFSINTMGWYRQAPGKQRELVALISSIGDTYYADSVKGRFTISRDNAKNTVYLQMNCLKPEDTAVYYCKRFRTAAQGTDYWGQGTQVTVSSHHHHHH
modifications: His6 tag
As to B5, the “cytotoxicity in HER2-negative cells” value in the data set with MDA-MB-231 cells was “none of the substances are cytotoxic”. Moreover, the “viability of the treated cells” value in the data set on SKBR3 cells [1] (CCK8) is “approximately 100%”.

B6: VHH0-MMAF (conjugate)
VHH: EVQLVESGGGLVQAGGSLRLSCAASGITFSINTMGWYRQAPGKQRELVALISSIGDTYYADSVKGRFTISRDNAKNTVYLQMNCLKPEDTAVYYCKRFRTAAQGTDYWGQGTQVTVSSHHHHHH
Take B6: the “cytotoxicity in HER2-negative cells” value in the data set with MDA-MB-231 cells was “none of the substances are cytotoxic”. The maximal killing result with SKBR3 cells [1] (CCK8) is recorded as “about 50%”. Further, the half-maximal inhibitory concentration (IC50) in the data set with SKBR3 cells [1] (Table 7) was 1.57 nM.
